In patent US20170137467A1 (CHROMOTEK, published 2017):
Square brackets hold non-standard residues; d marks the D form. GABA = NCCCC(=O)O

T1: BC2T D2R (human)
T1 construct: position 2 library, row R
T1 peptide: Ac-PRRKAAVSHWQQ-NH2

T2: BC2T A5W (human)
T2 construct: position 5 library, row W
T2 peptide: Ac-PDRKWAVSHWQQ-NH2

T3: BC2T A5Q (human)
T3 construct: position 5 library, row Q
T3 peptide: Ac-PDRKQAVSHWQQ-NH2

T4: BC2T A5K (human)
T4 construct: position 5 library, row K
T4 peptide: Ac-PDRKKAVSHWQQ-NH2

T5: BC2T R3S (human)
T5 construct: position 3 library (BC2TR3X), row S
T5 peptide: Ac-PDSKAAVSHWQQ-NH2

T6: BC2T A5F (human)
T6 construct: position 5 library, row F
T6 peptide: Ac-PDRKFAVSHWQQ-NH2

T7: BC2T P1F (human)
T7 construct: position 1 library, row F
T7 peptide: Ac-FDRKAAVSHWQQ-NH2

T8: BC2T D2S (human)
T8 construct: position 2 library, row S
T8 peptide: Ac-PSRKAAVSHWQQ-NH2

T9: BC2T A6Q (human)
T9 construct: position 6 library (BC2TA6X), row Q
T9 peptide: Ac-PDRKAQVSHWQQ-NH2

T10: BC2T A6K (human)
T10 construct: position 6 library (BC2TA6X), row K
T10 peptide: Ac-PDRKAKVSHWQQ-NH2

T11: BC2T K4H (human)
T11 construct: position 4 library, row H
T11 peptide: Ac-PDRHAAVSHWQQ-NH2

T12: BC2T V7F (human)
T12 construct: position 7 library, row F
T12 peptide: Ac-PDRKAAFSHWQQ-NH2

T13: BC2T V7S (human)
T13 construct: position 7 library, row S
T13 peptide: Ac-PDRKAASSHWQQ-NH2

T14: BC2T V7D (human)
T14 construct: position 7 library, row D
T14 peptide: Ac-PDRKAADSHWQQ-NH2

T15: BC2T K4Q (human)
T15 construct: position 4 library, row Q
T15 peptide: Ac-PDRQAAVSHWQQ-NH2

T16: BC2T K4W (human)
T16 construct: position 4 library, row W
T16 peptide: Ac-PDRWAAVSHWQQ-NH2

T17: BC2T A5T (human)
T17 construct: position 5 library, row T
T17 peptide: Ac-PDRKTAVSHWQQ-NH2

T18: BC2T A5E (human)
T18 construct: position 5 library, row E
T18 peptide: Ac-PDRKEAVSHWQQ-NH2

T19: BC2T V7C(Abu) (human, also: Abu described as gamma-amino butyric acid)
T19 construct: position 7 library, row C(Abu) / C*
T19 peptide: Ac-PDRKAA[GABA]SHWQQ-NH2

T20: BC2T P1Y (human)
T20 construct: position 1 library, row Y
T20 peptide: Ac-YDRKAAVSHWQQ-NH2

T21: BC2T R3P (human)
T21 construct: position 3 library (BC2TR3X), row P
T21 peptide: Ac-PDPKAAVSHWQQ-NH2

T22: BC2T K4C(Abu) (human, not fully specified (residue 4))
T22 construct: position 4 library, row C(Abu) / C*
T22 peptide: Ac-PDRCAAVSHWQQ-NH2


Assays:
Experiment in all cases: library pulldown, LC-MS of supernatant; ratio vs GFP-Nb control (0=captured, 1=not captured)
BC2T D2R = target: T1, BC2T D2R
How it was run: (§1)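 Unbound peptide left in supernatant after 1 h pulldown in PBS/0.01% CHAPS measured by reversed-phase LC-MS (8–30% eluent B gradient, 20 min).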

BC2T A5W = target: T2, BC2T A5W
How it was run: as §1

BC2T A5Q = target: T3, BC2T A5Q
How it was run: as §1

BC2T A5K = target: T4, BC2T A5K
How it was run: as §1

BC2T R3S = target: T5, BC2T R3S
How it was run: as §1

BC2T A5F = target: T6, BC2T A5F
How it was run: as §1

BC2T P1F = target: T7, BC2T P1F
How it was run: as §1

BC2T D2S = target: T8, BC2T D2S
How it was run: as §1

BC2T A6Q = target: T9, BC2T A6Q
How it was run: as §1

BC2T A6K = target: T10, BC2T A6K
How it was run: as §1

BC2T K4H = target: T11, BC2T K4H
How it was run: as §1

BC2T V7F = target: T12, BC2T V7F
How it was run: as §1

BC2T V7S = target: T13, BC2T V7S
How it was run: as §1

BC2T V7D = target: T14, BC2T V7D
How it was run: as §1

BC2T K4Q = target: T15, BC2T K4Q
How it was run: as §1

BC2T K4W = target: T16, BC2T K4W
How it was run: as §1

BC2T A5T = target: T17, BC2T A5T
How it was run: as §1

BC2T A5E = target: T18, BC2T A5E
How it was run: as §1

BC2T V7C(Abu) = target: T19, BC2T V7C(Abu)
How it was run: as §1

BC2T P1Y = target: T20, BC2T P1Y
How it was run: as §1

BC2T R3P = target: T21, BC2T R3P
How it was run: as §1

BC2T K4C(Abu) = target: T22, BC2T K4C(Abu)
How it was run: as §1

Binder | ratio (BC2T D2R) | ratio (BC2T A5W) | ratio (BC2T A5Q) | ratio (BC2T A5K) | ratio (BC2T R3S) | ratio (BC2T A5F) | ratio (BC2T P1F) | ratio (BC2T D2S) | ratio (BC2T A6Q) | ratio (BC2T A6K) | ratio (BC2T K4H) | ratio (BC2T V7F) | ratio (BC2T V7S) | ratio (BC2T V7D) | ratio (BC2T K4Q) | ratio (BC2T K4W) | ratio (BC2T A5T) | ratio (BC2T A5E) | ratio (BC2T V7C(Abu)) | ratio (BC2T P1Y) | also measured
BC2 nanobody (BC2-Nb) (VHH, immobilised on agarose/sepharose beads in this assay; also called BC2 nanotrap (immobilised form); not shown: C-terminal 6xHis-tag added by pHEN6 vector) VHH: QVQLVESGGGLVQPGGSLTLSCTASGFTLDHYDIGWFRQAPGKEREGVSCINNSDDDTYYADSVKGRFTIFMDNAKDTVYLQMNSLKPEDTAIYYCAEARGCKRGRYEYDFWGQGTQVTVSS | 0.1 | 0 | 0.2 | 0.2 | 0.6 | 0.1 | 0.2 | 0.1 | 1 | 1 | 0.1 | 0.2 | 0.3 | 0.5 | 0.1 | 0.3 | 0.1 | 0.2 | 0.2 | 0.1 | ratio (BC2T R3P): 0.8; ratio (BC2T K4C(Abu)): 0.1
BC2-NbR106S (VHH, immobilised on beads in this assay; not shown: C-terminal 6xHis-tag added by pHEN6 vector) VHH: QVQLVESGGGLVQPGGSLTLSCTASGFTLDHYDIGWFRQAPGKEREGVSCINNSDDDTYYADSVKGRFTIFMDNAKDTVYLQMNSLKPEDTAIYYCAEARGCKRGSYEYDFWGQGTQVTVSS | 0.2 | 0.1 | 0.3 | 0.2 | 0.9 | 0.2 | 0.3 | 0.3 | 0.9 | 0.8 | 0.3 | 0.4 | 0.4 | 0.9 | 0.4 | 0.8 | 0.3 | 0.7 | 0.5 | 0.3 | ratio (BC2T R3P): 1; ratio (BC2T K4C(Abu)): 0.3
